Starred links: 1 amine or outer side, 2 acyl side, 3 side chain; linkers in the order of their positions; H or OH if unused. Non-standard residues stand in square brackets, D forms with d. Groups on a side chain read outwards from the residue. No end group written: not given here. *: point of attachment. C18 diacid = O=C(O)CCCCCCCCCCCCCCCCC(=O)*; γGlu = O=C(O)[C@H](CCC(=O)[*:2])N[*:1]; AEEA = NCCOCCOCC(=O)O; Aib = CC(C)(N)C(=O)O

The test concerns the target human corticotropin-releasing factor 2α (CRF2 α receptor) (human), Q13324. The test can be described thus: cell-based or functional assay.

human corticotropin-releasing factor 2α (CRF2 α receptor) (human), Q13324, sequence (Q13324 20-411): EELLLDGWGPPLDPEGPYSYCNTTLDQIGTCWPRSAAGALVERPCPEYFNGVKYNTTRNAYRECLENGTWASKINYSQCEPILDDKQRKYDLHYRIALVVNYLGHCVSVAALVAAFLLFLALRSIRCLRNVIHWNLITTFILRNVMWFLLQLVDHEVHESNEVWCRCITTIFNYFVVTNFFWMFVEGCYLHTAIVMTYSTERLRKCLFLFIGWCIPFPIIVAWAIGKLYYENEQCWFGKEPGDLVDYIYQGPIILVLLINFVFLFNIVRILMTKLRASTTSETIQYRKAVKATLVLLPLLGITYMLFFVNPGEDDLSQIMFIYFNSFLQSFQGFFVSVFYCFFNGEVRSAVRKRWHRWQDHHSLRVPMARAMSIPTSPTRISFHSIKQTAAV

B1: SEQ ID NO: 169 (peptide)
peptide: Ac-IVLSLD[dV]PIKLK([AEEA-AEEA-γGlu-C18 diacid])QILLEQERQE[Aib]QREQAEKNEQILEQV-NH2
SMILES: CC[C@H](C)[C@H](NC(C)=O)C(=O)N[C@H](C(=O)N[C@@H](CC(C)C)C(=O)N[C@@H](CO)C(=O)N[C@@H](CC(C)C)C(=O)N[C@@H](CC(=O)O)C(=O)N[C@@H](C(=O)N1CCC[C@H]1C(=O)N[C@H](C(=O)N[C@@H](CCCCN)C(=O)N[C@@H](CC(C)C)C(=O)N[C@@H](CCCCNC(=O)COCCOCCNC(=O)COCCOCCNC(=O)CC[C@H](NC(=O)CCCCCCCCCCCCCCCCC(=O)O)C(=O)O)C(=O)N[C@@H](CCC(N)=O)C(=O)N[C@H](C(=O)N[C@@H](CC(C)C)C(=O)N[C@@H](CC(C)C)C(=O)N[C@@H](CCC(=O)O)C(=O)N[C@@H](CCC(N)=O)C(=O)N[C@@H](CCC(=O)O)C(=O)N[C@@H](CCCNC(=N)N)C(=O)N[C@@H](CCC(N)=O)C(=O)N[C@@H](CCC(=O)O)C(=O)NC(C)(C)C(=O)N[C@@H](CCC(N)=O)C(=O)N[C@@H](CCCNC(=N)N)C(=O)N[C@@H](CCC(=O)O)C(=O)N[C@@H](CCC(N)=O)C(=O)N[C@@H](C)C(=O)N[C@@H](CCC(=O)O)C(=O)N[C@@H](CCCCN)C(=O)N[C@@H](CC(N)=O)C(=O)N[C@@H](CCC(=O)O)C(=O)N[C@@H](CCC(N)=O)C(=O)N[C@H](C(=O)N[C@@H](CC(C)C)C(=O)N[C@@H](CCC(=O)O)C(=O)N[C@@H](CCC(N)=O)C(=O)N[C@H](C(N)=O)C(C)C)[C@@H](C)CC)[C@@H](C)CC)[C@@H](C)CC)C(C)C)C(C)C
Consider B1, for which the EC50 [nM], 0% HSA was determined as 4.01 nM and the EC50 [nM], 0.1% HSA stood at 98.1 nM.

B2: SEQ ID NO: 170 (peptide)
peptide: Ac-IVLSLD[dV]PIELK([AEEA-AEEA-γGlu-C18 diacid])QILLEQERQE[Aib]QREQAEKNEQILEQV-NH2
SMILES: CC[C@H](C)[C@H](NC(C)=O)C(=O)N[C@H](C(=O)N[C@@H](CC(C)C)C(=O)N[C@@H](CO)C(=O)N[C@@H](CC(C)C)C(=O)N[C@@H](CC(=O)O)C(=O)N[C@@H](C(=O)N1CCC[C@H]1C(=O)N[C@H](C(=O)N[C@@H](CCC(=O)O)C(=O)N[C@@H](CC(C)C)C(=O)N[C@@H](CCCCNC(=O)COCCOCCNC(=O)COCCOCCNC(=O)CC[C@H](NC(=O)CCCCCCCCCCCCCCCCC(=O)O)C(=O)O)C(=O)N[C@@H](CCC(N)=O)C(=O)N[C@H](C(=O)N[C@@H](CC(C)C)C(=O)N[C@@H](CC(C)C)C(=O)N[C@@H](CCC(=O)O)C(=O)N[C@@H](CCC(N)=O)C(=O)N[C@@H](CCC(=O)O)C(=O)N[C@@H](CCCNC(=N)N)C(=O)N[C@@H](CCC(N)=O)C(=O)N[C@@H](CCC(=O)O)C(=O)NC(C)(C)C(=O)N[C@@H](CCC(N)=O)C(=O)N[C@@H](CCCNC(=N)N)C(=O)N[C@@H](CCC(=O)O)C(=O)N[C@@H](CCC(N)=O)C(=O)N[C@@H](C)C(=O)N[C@@H](CCC(=O)O)C(=O)N[C@@H](CCCCN)C(=O)N[C@@H](CC(N)=O)C(=O)N[C@@H](CCC(=O)O)C(=O)N[C@@H](CCC(N)=O)C(=O)N[C@H](C(=O)N[C@@H](CC(C)C)C(=O)N[C@@H](CCC(=O)O)C(=O)N[C@@H](CCC(N)=O)C(=O)N[C@H](C(N)=O)C(C)C)[C@@H](C)CC)[C@@H](C)CC)[C@@H](C)CC)C(C)C)C(C)C
Consider B2, for which the EC50 [nM], 0% HSA was determined as 62.1 nM.

B3: SEQ ID NO: 166 (peptide)
peptide: Ac-IVLSLD[dV]PIKLK([AEEA-AEEA-γGlu-C18 diacid])QILLEQERQK[Aib]QREQAEKNEQILEQV-NH2
SMILES: CC[C@H](C)[C@H](NC(C)=O)C(=O)N[C@H](C(=O)N[C@@H](CC(C)C)C(=O)N[C@@H](CO)C(=O)N[C@@H](CC(C)C)C(=O)N[C@@H](CC(=O)O)C(=O)N[C@@H](C(=O)N1CCC[C@H]1C(=O)N[C@H](C(=O)N[C@@H](CCCCN)C(=O)N[C@@H](CC(C)C)C(=O)N[C@@H](CCCCNC(=O)COCCOCCNC(=O)COCCOCCNC(=O)CC[C@H](NC(=O)CCCCCCCCCCCCCCCCC(=O)O)C(=O)O)C(=O)N[C@@H](CCC(N)=O)C(=O)N[C@H](C(=O)N[C@@H](CC(C)C)C(=O)N[C@@H](CC(C)C)C(=O)N[C@@H](CCC(=O)O)C(=O)N[C@@H](CCC(N)=O)C(=O)N[C@@H](CCC(=O)O)C(=O)N[C@@H](CCCNC(=N)N)C(=O)N[C@@H](CCC(N)=O)C(=O)N[C@@H](CCCCN)C(=O)NC(C)(C)C(=O)N[C@@H](CCC(N)=O)C(=O)N[C@@H](CCCNC(=N)N)C(=O)N[C@@H](CCC(=O)O)C(=O)N[C@@H](CCC(N)=O)C(=O)N[C@@H](C)C(=O)N[C@@H](CCC(=O)O)C(=O)N[C@@H](CCCCN)C(=O)N[C@@H](CC(N)=O)C(=O)N[C@@H](CCC(=O)O)C(=O)N[C@@H](CCC(N)=O)C(=O)N[C@H](C(=O)N[C@@H](CC(C)C)C(=O)N[C@@H](CCC(=O)O)C(=O)N[C@@H](CCC(N)=O)C(=O)N[C@H](C(N)=O)C(C)C)[C@@H](C)CC)[C@@H](C)CC)[C@@H](C)CC)C(C)C)C(C)C
B3 yielded an EC50 [nM], 0% HSA of 0.9 nM and an EC50 [nM], 0.1% HSA of 14 nM.

B4: SEQ ID NO: 171 (peptide)
peptide: IVLSLD[dV]PIKLK([AEEA-AEEA-γGlu-γGlu-C18 diacid])QILLKQERQK[Aib]QREQAEKNKQILAQV-NH2
modifications: N-terminus assumed
SMILES: CC[C@H](C)[C@H](N)C(=O)N[C@H](C(=O)N[C@@H](CC(C)C)C(=O)N[C@@H](CO)C(=O)N[C@@H](CC(C)C)C(=O)N[C@@H](CC(=O)O)C(=O)N[C@@H](C(=O)N1CCC[C@H]1C(=O)N[C@H](C(=O)N[C@@H](CCCCN)C(=O)N[C@@H](CC(C)C)C(=O)N[C@@H](CCCCNC(=O)COCCOCCNC(=O)COCCOCCNC(=O)CC[C@H](NC(=O)CC[C@H](NC(=O)CCCCCCCCCCCCCCCCC(=O)O)C(=O)O)C(=O)O)C(=O)N[C@@H](CCC(N)=O)C(=O)N[C@H](C(=O)N[C@@H](CC(C)C)C(=O)N[C@@H](CC(C)C)C(=O)N[C@@H](CCCCN)C(=O)N[C@@H](CCC(N)=O)C(=O)N[C@@H](CCC(=O)O)C(=O)N[C@@H](CCCNC(=N)N)C(=O)N[C@@H](CCC(N)=O)C(=O)N[C@@H](CCCCN)C(=O)NC(C)(C)C(=O)N[C@@H](CCC(N)=O)C(=O)N[C@@H](CCCNC(=N)N)C(=O)N[C@@H](CCC(=O)O)C(=O)N[C@@H](CCC(N)=O)C(=O)N[C@@H](C)C(=O)N[C@@H](CCC(=O)O)C(=O)N[C@@H](CCCCN)C(=O)N[C@@H](CC(N)=O)C(=O)N[C@@H](CCCCN)C(=O)N[C@@H](CCC(N)=O)C(=O)N[C@H](C(=O)N[C@@H](CC(C)C)C(=O)N[C@@H](C)C(=O)N[C@@H](CCC(N)=O)C(=O)N[C@H](C(N)=O)C(C)C)[C@@H](C)CC)[C@@H](C)CC)[C@@H](C)CC)C(C)C)C(C)C
For B4, the EC50 [nM], 0% HSA was 0.17 nM and the EC50 [nM], 0.1% HSA was 2.62 nM.

B5: SEQ ID NO: 168 (peptide)
peptide: Ac-IVLSLD[dV]PIELK([AEEA-AEEA-γGlu-C18 diacid])QILLEQERQK[Aib]QREQAEKNEQILEQV-NH2
SMILES: CC[C@H](C)[C@H](NC(C)=O)C(=O)N[C@H](C(=O)N[C@@H](CC(C)C)C(=O)N[C@@H](CO)C(=O)N[C@@H](CC(C)C)C(=O)N[C@@H](CC(=O)O)C(=O)N[C@@H](C(=O)N1CCC[C@H]1C(=O)N[C@H](C(=O)N[C@@H](CCC(=O)O)C(=O)N[C@@H](CC(C)C)C(=O)N[C@@H](CCCCNC(=O)COCCOCCNC(=O)COCCOCCNC(=O)CC[C@H](NC(=O)CCCCCCCCCCCCCCCCC(=O)O)C(=O)O)C(=O)N[C@@H](CCC(N)=O)C(=O)N[C@H](C(=O)N[C@@H](CC(C)C)C(=O)N[C@@H](CC(C)C)C(=O)N[C@@H](CCC(=O)O)C(=O)N[C@@H](CCC(N)=O)C(=O)N[C@@H](CCC(=O)O)C(=O)N[C@@H](CCCNC(=N)N)C(=O)N[C@@H](CCC(N)=O)C(=O)N[C@@H](CCCCN)C(=O)NC(C)(C)C(=O)N[C@@H](CCC(N)=O)C(=O)N[C@@H](CCCNC(=N)N)C(=O)N[C@@H](CCC(=O)O)C(=O)N[C@@H](CCC(N)=O)C(=O)N[C@@H](C)C(=O)N[C@@H](CCC(=O)O)C(=O)N[C@@H](CCCCN)C(=O)N[C@@H](CC(N)=O)C(=O)N[C@@H](CCC(=O)O)C(=O)N[C@@H](CCC(N)=O)C(=O)N[C@H](C(=O)N[C@@H](CC(C)C)C(=O)N[C@@H](CCC(=O)O)C(=O)N[C@@H](CCC(N)=O)C(=O)N[C@H](C(N)=O)C(C)C)[C@@H](C)CC)[C@@H](C)CC)[C@@H](C)CC)C(C)C)C(C)C
B5: the EC50 [nM], 0% HSA was found to be 13.9 nM.

B6: SEQ ID NO: 167 (peptide)
peptide: Ac-IVLSLD[dV]PIGLK([AEEA-AEEA-γGlu-C18 diacid])QILLEQERQK[Aib]QREQAEKNEQILEQV-NH2
SMILES: CC[C@H](C)[C@H](NC(C)=O)C(=O)N[C@H](C(=O)N[C@@H](CC(C)C)C(=O)N[C@@H](CO)C(=O)N[C@@H](CC(C)C)C(=O)N[C@@H](CC(=O)O)C(=O)N[C@@H](C(=O)N1CCC[C@H]1C(=O)N[C@H](C(=O)NCC(=O)N[C@@H](CC(C)C)C(=O)N[C@@H](CCCCNC(=O)COCCOCCNC(=O)COCCOCCNC(=O)CC[C@H](NC(=O)CCCCCCCCCCCCCCCCC(=O)O)C(=O)O)C(=O)N[C@@H](CCC(N)=O)C(=O)N[C@H](C(=O)N[C@@H](CC(C)C)C(=O)N[C@@H](CC(C)C)C(=O)N[C@@H](CCC(=O)O)C(=O)N[C@@H](CCC(N)=O)C(=O)N[C@@H](CCC(=O)O)C(=O)N[C@@H](CCCNC(=N)N)C(=O)N[C@@H](CCC(N)=O)C(=O)N[C@@H](CCCCN)C(=O)NC(C)(C)C(=O)N[C@@H](CCC(N)=O)C(=O)N[C@@H](CCCNC(=N)N)C(=O)N[C@@H](CCC(=O)O)C(=O)N[C@@H](CCC(N)=O)C(=O)N[C@@H](C)C(=O)N[C@@H](CCC(=O)O)C(=O)N[C@@H](CCCCN)C(=O)N[C@@H](CC(N)=O)C(=O)N[C@@H](CCC(=O)O)C(=O)N[C@@H](CCC(N)=O)C(=O)N[C@H](C(=O)N[C@@H](CC(C)C)C(=O)N[C@@H](CCC(=O)O)C(=O)N[C@@H](CCC(N)=O)C(=O)N[C@H](C(N)=O)C(C)C)[C@@H](C)CC)[C@@H](C)CC)[C@@H](C)CC)C(C)C)C(C)C
Consider B6, for which the EC50 [nM], 0% HSA came to 3.95 nM and the EC50 [nM], 0.1% HSA was 74.4 nM.
